From patent publication US12116424 (WISCONSIN ALUMNI RESEARCH FOUNDATION, dated 2024)
Read-outs that look alike come from different tables or passages of the source. Bridges are numbered along the chain shown (N, C = ends). Where no end group is shown, it is not given here. [ ]: non-standard residue; d: D form.

B1: 9-mer (peptide)
peptide: MSKACFMFV
modifications: not fully specified; thiolactone ring Cys5-Val9 (Cys side chain to C-terminal carboxyl)
B2: 12-mer (peptide)
peptide: DSSMSKACFMFV
modifications: not fully specified; thiolactone ring Cys8-Val12 (Cys side chain to C-terminal carboxyl)
B3: Se AIP-I (peptide)
peptide: DSVCASYF
modifications: not fully specified; thiolactone ring Cys4-Phe8 (Cys side chain to C-terminal carboxyl)
B4: 14-mer (peptide)
peptide: VADSSMSKACFMFV
modifications: not fully specified; thiolactone ring Cys10-Val14 (Cys side chain to C-terminal carboxyl)
B5: 15-mer (peptide)
peptide: KVADSSMSKACFMFV
modifications: not fully specified; thiolactone ring Cys11-Val15 (Cys side chain to C-terminal carboxyl)
B6: Se AIP-I D1AV3AS6A (peptide)
peptide: ASACAAYF
modifications: not fully specified; thiolactone ring Cys4-Phe8 (Cys side chain to C-terminal carboxyl)
B7: Sa AIP-IV (peptide)
peptide: YSTCYFIM
modifications: not fully specified; thiolactone ring Cys4-Met8 (Cys side chain to C-terminal carboxyl)
B8: 11-mer (peptide)
peptide: SSMSKACFMFV
modifications: not fully specified; thiolactone ring Cys7-Val11 (Cys side chain to C-terminal carboxyl)
B9: Se AIP-I D1AS6A (peptide)
peptide: ASVCAAYF
modifications: not fully specified; thiolactone ring Cys4-Phe8 (Cys side chain to C-terminal carboxyl)
B10: Sa AIP-I (peptide)
peptide: YSTCDFIM
modifications: not fully specified; thiolactone ring Cys4-Met8 (Cys side chain to C-terminal carboxyl)
B11: Se AIP-II (peptide)
peptide: NASKYNPCSNYL
modifications: not fully specified; thiolactone ring Cys8-Leu12 (Cys side chain to C-terminal carboxyl)
B12: Sa AIP-II (peptide)
peptide: GVNACSSLF
modifications: not fully specified; thiolactone ring Cys5-Phe9 (Cys side chain to C-terminal carboxyl)
B13: 8-mer (peptide)
peptide: SKACFMFV
modifications: not fully specified; thiolactone ring Cys4-Val8 (Cys side chain to C-terminal carboxyl)
B14: 10-mer (peptide)
peptide: SMSKACFMFV
modifications: not fully specified; thiolactone ring Cys6-Val10 (Cys side chain to C-terminal carboxyl)
B15: 13-mer (peptide)
peptide: ADSSMSKACFMFV
modifications: not fully specified; thiolactone ring Cys9-Val13 (Cys side chain to C-terminal carboxyl)

Assays:
Assay in all cases: cell-based or functional assay
[1] = biological target: T1, L. monocytogenes AgrC (Listeria monocytogenes (EGD-e))
[2] = biological target: T1, L. monocytogenes AgrC; remark: listed apart in the source
[3] = biological target: T1, L. monocytogenes AgrC; remark: listed apart in the source

Binder | EC50 (agr-GFP reporter, ΔagrD strain) [1] [nM] | Max Activation (agr-GFP reporter, ΔagrD strain) [1] [%] | Max Inhibition (agr-GFP reporter, wild-type strain) [1] [%] | Max Activation (agr-GFP reporter, ΔagrD strain) [2] [%] | Max Inhibition (agr-GFP reporter, wild-type strain) [2] [%] | further results
B1 | 23.5 | 93.6 | 8.89 | – | – | IC50 (agr-GFP reporter, wild-type strain) [1]: 416 nM
B2 | 43.4 | 116 | 0.26 | – | – | –
B3 | – | – | – | 8.65 | 0 | –
B4 | 39.9 | 105 | 0 | – | – | –
KA[dC]F[dM]FV (bridge 3-C; also: thiolactone: dCys3 side chain to C-terminal carboxyl) [7-mer C3dC/M5dM] | – | – | – | – | – | IC50 (agr-GFP reporter, wild-type strain) [3]: 1290 nM; Max Activation Observed (agr-GFP reporter, ΔagrD strain) [3]: 7.89%; Max Inhibition Observed (agr-GFP reporter, wild-type strain) [3]: 88.9%
KKCFMFV (bridge 3-C; also: thiolactone: Cys3 side chain to C-terminal carboxyl) [7-mer A2K] | – | – | – | – | – | EC50 (agr-GFP reporter, ΔagrD strain) [3]: 185 nM; IC50 (agr-GFP reporter, wild-type strain) [3]: 359 nM; Max Activation Observed (agr-GFP reporter, ΔagrD strain) [3]: 64.8%; Max Inhibition Observed (agr-GFP reporter, wild-type strain) [3]: 51.8%
NAAKYNPCASYL (bridge 8-C) [Se AIP-III] | – | – | – | 8.73 | 0 | –
B5 | 22.2 | 122 | 0.23 | – | – | –
B6 | – | – | – | 12.1 | 0.06 | –
B7 | – | – | – | 9.81 | 8.56 | –
KACF[dM]FV (bridge 3-C; also: thiolactone: Cys3 side chain to C-terminal carboxyl) [7-mer M5dM] | – | – | – | – | – | EC50 (agr-GFP reporter, ΔagrD strain) [3]: 8.29 nM; Max Activation Observed (agr-GFP reporter, ΔagrD strain) [3]: 71.9%; Max Inhibition Observed (agr-GFP reporter, wild-type strain) [3]: 18.5%
B8 | 14.3 | 111 | 3.9 | – | – | –
INCAFLL (bridge 3-C; also: thiolactone: Cys3 side chain to C-terminal carboxyl) [Sa AIP-III D4A] | – | – | – | 12.3 | 5.87 | –
INCDFLL (bridge 3-C; also: thiolactone: Cys3 side chain to C-terminal carboxyl) [Sa AIP-III] | – | – | – | 11.3 | 0.64 | –
B9 | – | – | – | 12.4 | 0 | –
KACFMFV (bridge 3-C; also: thiolactone: Cys3 side chain to C-terminal carboxyl) [7-mer, K-A-(C-F-M-F-V)] | 61.7 | 64.6 | 38.3 | – | – | IC50 (agr-GFP reporter, wild-type strain) [1]: 866 nM
B10 | – | – | – | 12.2 | 1.29 | –
B11 | – | – | – | 8.45 | 0 | –
KA[dC]FMFV (bridge 3-C; also: thiolactone: dCys3 side chain to C-terminal carboxyl) [7-mer C3dC] | – | – | – | – | – | IC50 (agr-GFP reporter, wild-type strain) [3]: 3800 nM; Max Activation Observed (agr-GFP reporter, ΔagrD strain) [3]: 7.08%; Max Inhibition Observed (agr-GFP reporter, wild-type strain) [3]: 49.3%
B12 | – | – | – | 12 | 0 | –
B13 | 68.6 | 71.5 | 29.4 | – | – | IC50 (agr-GFP reporter, wild-type strain) [1]: 842 nM
B14 | 21.5 | 110 | 0 | – | – | –
B15 | 29 | 108 | 0 | – | – | –
